Assay [1] addresses T1, human 4-1BB on cells (human, UniProt Q07011 24-255). Description: cell-based or functional assay.
Assay [2] addresses T2, human fibroblast activation protein (huFAP) on cells (human, UniProt Q12884 1-760).
T2 construct: also called NIH/3T3-huFAP clone 39; NIH/3T3-huFAP clone 19
Description: flow cytometry, WM266-4.

In a further assay the target is T3, human OX40 on cells (human, UniProt P43489 29-277).
T3 sequence: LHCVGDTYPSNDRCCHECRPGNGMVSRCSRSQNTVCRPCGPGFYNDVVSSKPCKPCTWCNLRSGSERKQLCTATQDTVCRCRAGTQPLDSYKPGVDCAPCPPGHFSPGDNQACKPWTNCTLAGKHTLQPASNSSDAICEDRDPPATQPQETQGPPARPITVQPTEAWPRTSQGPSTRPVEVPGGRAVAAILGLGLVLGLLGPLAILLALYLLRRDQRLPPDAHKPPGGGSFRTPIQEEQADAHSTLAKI
Description: flow cytometry, activated human CD4 T cells.

For assay [3], the target named is T1, human 4-1BB on cells. As to the kind of experiment: flow cytometry, activated human CD8 T cells.
Description: Plates were centrifuged 4 minutes with 400×g at 4° C. and supernatant was discarded. […] Afterwards cells were washed once with 200 μL/well cold FACS buffer (DPBS supplied with 2% (v/v) FBS, 5 mM EDTA pH8 (Amresco, Cat. No. E177) and 7.5 mM sodium azide (Sigma-Aldrich S2002)). […] Cells were washed four times with 200 μL/well 4° C.
Cells were washed twice with 200 μL FACS buffer/well and fixated by resuspending in 50 μL/well DPBS containing 1% Formaldehyde (Sigma, HT501320-9.5L). Cells were acquired the same or next day using a 3-laser Canto II (BD Bioscience with DIVA software) or a 5-laser Fortessa (BD Bioscience with DIVA software) or 3-laser MACSQuant Analyzer 10 (Miltenyi Biotech). Gates were set on CD8⁺ and CD4⁺ T cells and the median fluorescence intensity (MFI) or geo mean of fluorescence intensity of the secondary detection antibody was used to analyze binding of primary antibodies. Using Graph Pad Prism (Graph Pad Software Inc.) data was baselined by subtracting the blank values (no primary antibody added) and the EC50 values were calculated using non-linear regression curve fit (robust fit).
Assay [4] has as its target T1, human 4-1BB on cells. As to the kind of experiment: cell-based or functional assay. The source holds these as a separate data set.
In assay [5] the target is recombinant cynomolgus 4-1BB Fc(kih) (cynomolgus, UniProt P0DOX5 223-449 = IgG part, biotin on C-terminal Avi tag where used biotinylated). Description: SPR, captured IgG, cyno 4-1BB Fc(kih) analyte.
Description: (§1) All SPR experiments were performed on a Biacore T200 at 25° C. with HBS-EP as running buffer (0.01 M HEPES pH 7.4, 0.15 M NaCl, 3 mM EDTA, 0.005% Surfactant P20, Biacore, Freiburg/Germany).
Anti-human Fab antibody (Biacore, Freiburg/Germany) was directly coupled on a CM5 chip at pH 5.0 using the standard amine coupling kit (Biacore, Freiburg/Germany). The immobilization level was approximately 9000 RU.
Assay [6] addresses T4, cynomolgus 4-1BB on activated cynomolgus PBMC (cynomolgus, UniProt Q07011 24-255 (human entry)).
T4 chain: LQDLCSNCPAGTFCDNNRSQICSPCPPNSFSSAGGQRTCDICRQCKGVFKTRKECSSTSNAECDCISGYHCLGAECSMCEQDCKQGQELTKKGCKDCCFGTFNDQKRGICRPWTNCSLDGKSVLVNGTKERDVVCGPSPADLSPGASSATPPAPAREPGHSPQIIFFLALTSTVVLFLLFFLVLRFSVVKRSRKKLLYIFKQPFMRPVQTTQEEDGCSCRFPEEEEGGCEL
Description: flow cytometry, activated cynomolgus CD4 T cells.
Description: (§2) Cells were washed twice with FACS buffer and resuspended in 100 μL/well FACS buffer supplied with 0.2 μg/mL DAPI to discriminated dead from living cells. Cells were immediately acquired using a 5-laser Fortessa (BD Bioscience with DIVA software). Gates were set on CD8⁺ and CD4⁺ T cells and the median fluorescence intensity (MFI) of the secondary detection antibody was used to analyze binding of primary antibodies. Using Graph Pad Prism (Graph Pad Software Inc.) data was baselined by subtracting the blank values (no primary antibody added) and the EC₅₀ values were calculated using non-linear regression curve fit (robust fit).

Assay [7] deals with T5, recombinant human 4-1BB Fc(kih) (human, UniProt P0DOX5 223-449 = IgG part, biotin on C-terminal Avi tag where used biotinylated).
T5 construct: also called hu4-1BB; biotinylated human 4-1BB
As to the kind of experiment: SPR, captured IgG, 4-1BB Fc(kih) analyte.
Description: as §1
Anti-human Fab antibody (Biacore, Freiburg/Germany) was directly coupled on a CM5 chip at pH 5.0 using the standard amine coupling kit (Biacore, Freiburg/Germany). The immobilization level was approximately 7500 RU. […] The dissociation was monitored for 120 seconds. Bulk refractive index differences were corrected for by subtracting the response obtained on reference flow cell.

Assay [8] deals with T4, cynomolgus 4-1BB on activated …. As to the kind of experiment: flow cytometry, activated cynomolgus CD8 T cells.
Description: as §2
Assay [9] concerns the target mouse 4-1BB on activated mouse splenocytes (mouse, UniProt P20334 24-256). As to the kind of experiment: flow cytometry, activated mouse T cells.
Description: Cells were incubated for 30 min at 4° C., washed twice with 200 μL/well FACS-buffer and resuspended for fixation with 50 μL/well DPBS containing 1% (v/v) formaldehyde. The next day cells were resuspended in 200 μL/well FACS buffer and acquired using the 2-laser Cantoll (BD Bioscience with DIVA software) or 5-laser Fortessa (BD Bioscience with DIVA software). Gates were set on CD8⁺ and CD4⁺ T cells and the median fluorescence intensity (MFI) of the secondary detection antibody was used to analyze binding of primary antibodies. Using Graph Pad Prism (Graph Pad Software Inc.) data was baselined by subtracting the blank values (no primary antibody added) and the EC₅₀ values were calculated using non-linear regression curve fit (robust fit).
Assay [10] addresses T6, human GITR on HEK cells (HEK-GITR) (human, UniProt Q9Y5U5 26-241).
T6 construct: also called cell surface expressed human GITR
T6 sequence: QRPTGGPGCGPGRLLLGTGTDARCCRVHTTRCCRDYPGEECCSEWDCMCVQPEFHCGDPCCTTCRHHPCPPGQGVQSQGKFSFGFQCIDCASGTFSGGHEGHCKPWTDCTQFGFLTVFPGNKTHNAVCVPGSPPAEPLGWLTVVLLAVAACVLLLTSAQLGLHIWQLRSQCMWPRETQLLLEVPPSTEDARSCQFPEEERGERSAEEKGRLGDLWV
As to the kind of experiment: flow cytometry, HEK-GITR.
Description: Cells were washed twice with complete media and once with PBS+2% FBS before adjusting cell density to 1×10⁷ cells/mL in PBS+2% FBS.
Plates were centrifuged at 4° C., 3 minutes at 600×g and supernatant was flicked off. Cells were resuspended in 50 μL/well of 4° C. cold PBS+2% FBS containing titrated anti-GITR antibody constructs for 120 minutes at 4° C. Plates were washed twice with 200 μL/well 4° C. PBS+2% FBS to remove unbound construct. […] Plates were centrifuged at 4° C. for 3 minutes at 600×g and washed twice with PBS+2% FBS. […] Plates were centrifuged at 4° C., 3 minutes at 600×g and supernatant was flicked off.

Chain of mouse 4-1BB on activated mouse splenocytes (P20334 24-256 limits assumed): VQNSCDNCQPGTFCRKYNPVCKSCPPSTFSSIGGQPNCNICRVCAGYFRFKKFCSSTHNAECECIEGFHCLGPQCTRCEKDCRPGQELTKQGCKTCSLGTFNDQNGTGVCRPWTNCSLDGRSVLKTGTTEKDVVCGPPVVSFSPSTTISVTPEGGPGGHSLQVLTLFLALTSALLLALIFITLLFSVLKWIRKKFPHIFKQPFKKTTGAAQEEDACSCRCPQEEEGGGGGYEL

B1: 25G7/FAP P329GLALA IgG1 1+1 (bispecific antibody)
heavy 1: not shown
light 1: SSELTQDPAVSVALGQTVRITCQGDSLRSYYASWYQQKPGQAPVLVIYGKNNRPSGIPDRFSGSSSGNTASLTITGAQAEDEADYYCNSLDRRGMWVFGGGTKLTVLGQPKAAPSVTLFPPSSEELQANKATLVCLISDFYPGAVTVAWKADSSPVKAGVETTTPSKQSNNKYAASSYLSLTPEQWKSHRSYSCQVTHEGSTVEKTVAPTECS
heavy 2: EVQLLESGGGLVQPGGSLRLSCAASGFTFSSHAMSWVRQAPGKGLEWVSAIWASGEQYYADSVKGRFTISRDNSKNTLYLQMNSLRAEDTAVYYCAKGWLGNFDYWGQGTLVTVSSASVAAPSVFIFPPSDEQLKSGTASVVCLLNNFYPREAKVQWKVDNALQSGNSQESVTEQDSKDSTYSLSSTLTLSKADYEKHKVYACEVTHQGLSSPVTKSFNRGECDKTHTCPPCPAPEAAGGPSVFLFPPKPKDTLMISRTPEVTCVVVDVSHEDPEVKFNWYVDGVEVHNAKTKPREEQYNSTYRVVSVLTVLHQDWLNGKEYKCKVSNKALGAPIEKTISKAKGQPREPQVCTLPPSRDELTKNQVSLSCAVKGFYPSDIAVEWESNGQPENNYKTTPPVLDSDGSFFLVSKLTVDKSRWQQGNVFSCSVMHEALHNHYTQKSLSLSPGK
light 2: EIVLTQSPGTLSLSPGERATLSCRASQSVSRSYLAWYQQKPGQAPRLLIIGASTRATGIPDRFSGSGSGTDFTLTISRLEPEDFAVYYCQQGQVIPPTFGQGTKVEIKSSASTKGPSVFPLAPSSKSTSGGTAALGCLVKDYFPEPVTVSWNSGALTSGVHTFPAVLQSSGLYSLSSVVTVPSSSLGTQTYICNVNHKPSNTKVDKKVEPKSCD
On to B1, for which, in the assay with human 4-1BB on cells [1], the “EC50 of NFκB/luciferase activation, 4-1BB reporter HeLa with NIH/3T3-huFAP clone 19” value (shortened to “EC50 … with NIH/3T3-huFAP clone 19”) was found to be 3.2 nM.

B2: 11D5/FAP P329GLALA IgG1 2+2 (bispecific antibody)
heavy: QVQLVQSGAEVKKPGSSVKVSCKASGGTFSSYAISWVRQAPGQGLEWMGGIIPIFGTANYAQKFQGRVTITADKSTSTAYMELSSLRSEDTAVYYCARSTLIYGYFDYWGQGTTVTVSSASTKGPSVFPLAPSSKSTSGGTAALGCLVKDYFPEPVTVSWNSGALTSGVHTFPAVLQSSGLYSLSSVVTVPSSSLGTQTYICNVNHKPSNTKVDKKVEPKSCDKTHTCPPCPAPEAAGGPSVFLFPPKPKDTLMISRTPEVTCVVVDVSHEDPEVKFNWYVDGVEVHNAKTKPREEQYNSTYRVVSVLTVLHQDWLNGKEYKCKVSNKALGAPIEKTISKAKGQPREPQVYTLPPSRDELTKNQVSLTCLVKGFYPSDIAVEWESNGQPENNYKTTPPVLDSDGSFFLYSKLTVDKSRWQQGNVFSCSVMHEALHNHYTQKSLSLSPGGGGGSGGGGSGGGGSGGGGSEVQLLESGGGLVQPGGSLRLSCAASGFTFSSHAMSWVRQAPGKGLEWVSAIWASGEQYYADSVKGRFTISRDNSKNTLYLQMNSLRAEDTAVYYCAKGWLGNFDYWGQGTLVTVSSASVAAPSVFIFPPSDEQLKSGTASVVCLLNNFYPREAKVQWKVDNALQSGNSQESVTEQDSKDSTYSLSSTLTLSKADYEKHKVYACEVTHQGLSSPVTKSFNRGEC
light 1: not shown
light 2: EIVLTQSPGTLSLSPGERATLSCRASQSVSRSYLAWYQQKPGQAPRLLIIGASTRATGIPDRFSGSGSGTDFTLTISRLEPEDFAVYYCQQGQVIPPTFGQGTKVEIKSSASTKGPSVFPLAPSSKSTSGGTAALGCLVKDYFPEPVTVSWNSGALTSGVHTFPAVLQSSGLYSLSSVVTVPSSSLGTQTYICNVNHKPSNTKVDKKVEPKSCD
Consider B2, for which the “EC50 … with NIH/3T3-huFAP clone 19” value with human 4-1BB on cells [1] worked out at 0.05 nM.

B3: 49B4/FAP P329GLALA IgG1 2+2 (bispecific antibody)
heavy: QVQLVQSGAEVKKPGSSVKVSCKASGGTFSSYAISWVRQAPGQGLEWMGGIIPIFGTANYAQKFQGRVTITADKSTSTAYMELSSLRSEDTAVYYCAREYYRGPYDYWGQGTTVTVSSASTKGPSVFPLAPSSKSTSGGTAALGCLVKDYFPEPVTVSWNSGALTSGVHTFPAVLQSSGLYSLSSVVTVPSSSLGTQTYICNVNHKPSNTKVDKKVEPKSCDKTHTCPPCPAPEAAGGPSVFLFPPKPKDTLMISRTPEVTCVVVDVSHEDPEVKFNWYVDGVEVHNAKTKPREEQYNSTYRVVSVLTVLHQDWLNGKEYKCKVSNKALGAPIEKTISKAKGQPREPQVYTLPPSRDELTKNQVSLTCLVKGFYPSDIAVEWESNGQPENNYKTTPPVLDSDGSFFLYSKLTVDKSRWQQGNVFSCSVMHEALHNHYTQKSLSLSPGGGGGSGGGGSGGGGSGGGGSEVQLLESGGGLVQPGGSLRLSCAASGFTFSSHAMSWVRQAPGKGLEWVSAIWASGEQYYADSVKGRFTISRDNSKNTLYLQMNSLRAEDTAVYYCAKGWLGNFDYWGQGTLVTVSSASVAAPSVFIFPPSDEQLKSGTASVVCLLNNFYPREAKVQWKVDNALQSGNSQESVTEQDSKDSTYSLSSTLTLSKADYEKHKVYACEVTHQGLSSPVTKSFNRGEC
light 1: DIQMTQSPSTLSASVGDRVTITCRASQSISSWLAWYQQKPGKAPKLLIYDASSLESGVPSRFSGSGSGTEFTLTISSLQPDDFATYYCQQYSSQPYTFGQGTKVEIKRTVAAPSVFIFPPSDEQLKSGTASVVCLLNNFYPREAKVQWKVDNALQSGNSQESVTEQDSKDSTYSLSSTLTLSKADYEKHKVYACEVTHQGLSSPVTKSFNRGEC
light 2: EIVLTQSPGTLSLSPGERATLSCRASQSVSRSYLAWYQQKPGQAPRLLIIGASTRATGIPDRFSGSGSGTDFTLTISRLEPEDFAVYYCQQGQVIPPTFGQGTKVEIKSSASTKGPSVFPLAPSSKSTSGGTAALGCLVKDYFPEPVTVSWNSGALTSGVHTFPAVLQSSGLYSLSSVVTVPSSSLGTQTYICNVNHKPSNTKVDKKVEPKSCD
notes: also called 2+2 (49B4/28H1); bispecific bivalent 2+2 construct 49B4
As for B3, a half-maximal response in assay [2] (EC50) required 1.31 nM.

B4: 4-1BB(25G7)/FAP(4B9) 2+1 (bispecific antibody, human IgG1, lambda, L234A L235A)
heavy 1: not shown
heavy 2: not shown
light: SSELTQDPAVSVALGQTVRITCQGDSLRSYYASWYQQKPGQAPVLVIYGKNNRPSGIPDRFSGSSSGNTASLTITGAQAEDEADYYCNSLDRRGMWVFGGGTKLTVLGQPKAAPSVTLFPPSSEELQANKATLVCLISDFYPGAVTVAWKADSSPVKAGVETTTPSKQSNNKYAASSYLSLTPEQWKSHRSYSCQVTHEGSTVEKTVAPTECS
B4: in the assay with human 4-1BB on cells [1], the “EC50 … with NIH/3T3-huFAP clone 19” value was 0.1 nM and the “EC50 of NFκB/luciferase activation, 4-1BB reporter HeLa with WM-266-4” value worked out at 0.3 nM.

B5: 4-1BB(25G7)/FAP(4B9) 4+1 (bispecific antibody, human IgG1, lambda, L234A L235A)
heavy 1: not shown
heavy 2: not shown
light: SSELTQDPAVSVALGQTVRITCQGDSLRSYYASWYQQKPGQAPVLVIYGKNNRPSGIPDRFSGSSSGNTASLTITGAQAEDEADYYCNSLDRRGMWVFGGGTKLTVLGQPKAAPSVTLFPPSSEELQANKATLVCLISDFYPGAVTVAWKADSSPVKAGVETTTPSKQSNNKYAASSYLSLTPEQWKSHRSYSCQVTHEGSTVEKTVAPTECS
In the case of B5, in the assay with human 4-1BB on cells [1], the “EC50 … with NIH/3T3-huFAP clone 19” value turned out to be 0.04 nM and the “EC50 of NFκB/luciferase activation, 4-1BB reporter HeLa with WM-266-4” value stood at 0.2 nM.

B6: 25G7/FAP P329GLALA IgG1 2+2 (bispecific antibody)
heavy: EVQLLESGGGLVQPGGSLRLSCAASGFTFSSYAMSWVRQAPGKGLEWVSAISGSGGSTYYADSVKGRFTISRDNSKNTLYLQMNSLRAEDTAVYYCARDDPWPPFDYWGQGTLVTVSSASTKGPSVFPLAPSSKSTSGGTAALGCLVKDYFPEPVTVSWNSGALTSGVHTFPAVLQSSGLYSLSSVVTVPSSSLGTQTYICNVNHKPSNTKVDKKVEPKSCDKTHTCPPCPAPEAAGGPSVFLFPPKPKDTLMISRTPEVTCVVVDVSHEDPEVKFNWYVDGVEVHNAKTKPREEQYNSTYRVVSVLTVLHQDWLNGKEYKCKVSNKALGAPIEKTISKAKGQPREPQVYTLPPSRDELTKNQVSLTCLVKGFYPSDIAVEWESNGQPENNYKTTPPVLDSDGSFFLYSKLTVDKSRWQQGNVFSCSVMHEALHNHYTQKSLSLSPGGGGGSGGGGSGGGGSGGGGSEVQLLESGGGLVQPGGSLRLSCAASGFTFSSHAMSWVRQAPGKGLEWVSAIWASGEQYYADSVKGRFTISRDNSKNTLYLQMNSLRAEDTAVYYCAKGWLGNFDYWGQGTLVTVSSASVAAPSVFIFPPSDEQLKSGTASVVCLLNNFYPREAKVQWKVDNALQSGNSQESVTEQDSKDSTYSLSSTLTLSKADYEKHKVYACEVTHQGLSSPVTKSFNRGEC
light 1: SSELTQDPAVSVALGQTVRITCQGDSLRSYYASWYQQKPGQAPVLVIYGKNNRPSGIPDRFSGSSSGNTASLTITGAQAEDEADYYCNSLDRRGMWVFGGGTKLTVLGQPKAAPSVTLFPPSSEELQANKATLVCLISDFYPGAVTVAWKADSSPVKAGVETTTPSKQSNNKYAASSYLSLTPEQWKSHRSYSCQVTHEGSTVEKTVAPTECS
light 2: EIVLTQSPGTLSLSPGERATLSCRASQSVSRSYLAWYQQKPGQAPRLLIIGASTRATGIPDRFSGSGSGTDFTLTISRLEPEDFAVYYCQQGQVIPPTFGQGTKVEIKSSASTKGPSVFPLAPSSKSTSGGTAALGCLVKDYFPEPVTVSWNSGALTSGVHTFPAVLQSSGLYSLSSVVTVPSSSLGTQTYICNVNHKPSNTKVDKKVEPKSCD
As to B6, the “EC50 … with NIH/3T3-huFAP clone 19” value with human 4-1BB on cells [1] worked out at 0.05 nM.

B7: 1G4/FAP P329GLALA IgG1 2+2 (bispecific antibody)
heavy: not shown
light 1: not shown
light 2: EIVLTQSPGTLSLSPGERATLSCRASQSVSRSYLAWYQQKPGQAPRLLIIGASTRATGIPDRFSGSGSGTDFTLTISRLEPEDFAVYYCQQGQVIPPTFGQGTKVEIKSSASTKGPSVFPLAPSSKSTSGGTAALGCLVKDYFPEPVTVSWNSGALTSGVHTFPAVLQSSGLYSLSSVVTVPSSSLGTQTYICNVNHKPSNTKVDKKVEPKSCD
notes: also called 1G4 FAP 2+2
In turn, B7 showed an EC50 with human OX40 on cells of 9.37 nM.

B8: 11D5 P329GLALA IgG1 (antibody, V domains shown)
VH: QVQLVQSGAEVKKPGSSVKVSCKASGGTFSSYAISWVRQAPGQGLEWMGGIIPIFGTANYAQKFQGRVTITADKSTSTAYMELSSLRSEDTAVYYCARSTLIYGYFDYWGQGTTVTVSS
VL: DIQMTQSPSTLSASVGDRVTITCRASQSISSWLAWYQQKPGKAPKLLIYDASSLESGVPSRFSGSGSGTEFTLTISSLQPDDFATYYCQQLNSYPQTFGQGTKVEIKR
notes: anti-4-1BB; also called 11D5 IgG
Regarding B8, the EC50 in the assay with human 4-1BB on cells [3] amounted to 1.46 nM; in assay [6], 0.97 nM; in assay [8], 1.04 nM. Also, in the assay with human 4-1BB on cells [4], the “EC50 of increase of IFNγ secretion in activated CD8+ T cells (surface-immobilized IgG)” value was 0.06 nM. Also, the results for the Kd in assay [5] and in assay [7] were 24 nM and 36 nM, respectively. The koff in assay [5] was determined as 0.00077 s⁻¹; in assay [7] it was 0.0012 s⁻¹. The kon was 31000 M⁻¹ s⁻¹ in assay [5] and 32000 M⁻¹ s⁻¹ in assay [7]. Besides, in [9], the binding result is “no binding”.

B9: 25G7 P329GLALA IgG1 (antibody, V domains shown)
VH: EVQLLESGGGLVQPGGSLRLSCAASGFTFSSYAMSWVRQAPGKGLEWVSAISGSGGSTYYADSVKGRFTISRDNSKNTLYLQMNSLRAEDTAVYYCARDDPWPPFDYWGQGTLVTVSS
VL: SSELTQDPAVSVALGQTVRITCQGDSLRSYYASWYQQKPGQAPVLVIYGKNNRPSGIPDRFSGSSSGNTASLTITGAQAEDEADYYCNSLDRRGMWVFGGGTKLTVLG
notes: anti-4-1BB; also called 25G7 IgG
Consider B9, for which the EC50 with human 4-1BB on cells [3] came to 29 nM; in [6], 6.68 nM; in [8], 4.52 nM. Moreover, the “EC50 of increase of IFNγ secretion in activated CD8+ T cells (surface-immobilized IgG)” value with human 4-1BB on cells [4] was found to be 0.12 nM. Moreover, the Kd is 17 nM in assay [5] and 34 nM in assay [7]. The koff stood at 0.00046 s⁻¹ in assay [5] and 0.00099 s⁻¹ in [7]. Also, the kon in assay [5] was 27000 M⁻¹ s⁻¹; in [7], 29000 M⁻¹ s⁻¹. Moreover, the binding result in [9] is reported as “no binding”.

B10: (GITR-DP47) [8A06] 4+1 construct with charged residues (bispecific antibody, V domains shown)
VH: QVQLVQSGAEVKKPGSSVKVSCKASGGTFSSYAISWVRQAPGQGLEWMGGIIPIFGTANYAQKFQGRVTITADKSTSTAYMELSSLRSEDTAVYYCARGYYAIDYWGQGTTVTVSS
VL: SSELTQDPAVSVALGQTVRITCQGDSLRSYYASWYQQKPGQAPVLVIYGKNNRPSGIPDRFSGSSSGNTASLTITGAQAEDEADYYCNSPQTSGSAVFGGGTKLTVL
As to B10, the midpoint of the response in [10], the EC50, lay at 1.92 nM.

B11: (GITR-FAP) [8A06] 4+2 construct with charged residues (bispecific antibody, V domains shown)
VH 1: QVQLVQSGAEVKKPGSSVKVSCKASGGTFSSYAISWVRQAPGQGLEWMGGIIPIFGTANYAQKFQGRVTITADKSTSTAYMELSSLRSEDTAVYYCARGYYAIDYWGQGTTVTVSS
VL 1: SSELTQDPAVSVALGQTVRITCQGDSLRSYYASWYQQKPGQAPVLVIYGKNNRPSGIPDRFSGSSSGNTASLTITGAQAEDEADYYCNSPQTSGSAVFGGGTKLTVL
VH 2: EVQLLESGGGLVQPGGSLRLSCAASGFTFSSHAMSWVRQAPGKGLEWVSAIWASGEQYYADSVKGRFTISRDNSKNTLYLQMNSLRAEDTAVYYCAKGWLGNFDYWGQGTLVTVSS
VL 2: EIVLTQSPGTLSLSPGERATLSCRASQSVSRSYLAWYQQKPGQAPRLLIIGASTRATGIPDRFSGSGSGTDFTLTISRLEPEDFAVYYCQQGQVIPPTFGQGTKVEIK
notes: human IgG1 P329G LALA; also called 4+2 CR
B11: the EC50 in assay [10] came to 2.06 nM.

For the origin of these results see patent publication US20220073646A1 (Hoffmann-La Roche, published 2022).
